# Laboratory results as given in US20250163164A1 (LANOVA MEDICINES DEVELOPMENT, published 2025).
# Values joined by “and” are separate entries in the source; they are usually repeats but may differ in a detail not shown here. Equal entries are not always repeated. Where two headings read alike, the source gives them in different places.
# T1: human interleukin 13 receptor subunit alpha 2 (IL-13RA2) (human, UniProt Q14627 27-380)
# T1 sequence (looked up): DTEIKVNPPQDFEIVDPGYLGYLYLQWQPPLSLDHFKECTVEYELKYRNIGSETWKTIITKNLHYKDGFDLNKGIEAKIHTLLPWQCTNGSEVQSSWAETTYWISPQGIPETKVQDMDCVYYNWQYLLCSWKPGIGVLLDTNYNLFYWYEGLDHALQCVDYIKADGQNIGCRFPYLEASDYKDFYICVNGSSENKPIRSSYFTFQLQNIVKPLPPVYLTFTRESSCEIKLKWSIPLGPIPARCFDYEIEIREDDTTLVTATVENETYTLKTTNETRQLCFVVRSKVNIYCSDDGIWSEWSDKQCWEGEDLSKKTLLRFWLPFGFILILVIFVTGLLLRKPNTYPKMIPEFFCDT
# Experiments:
# [1] = biological target: T1, human interleukin 13 receptor subunit …; assay: cell-based or functional assay
# [2] = biological target: T1, human interleukin 13 receptor subunit …; assay: FACS on A375 cells
# Method: (§1) A375 cells that endogenously expressed IL-13RA2, were harvested from flasks. 100 μl of 1×10⁶ cells/ml of cells were incubated with primary humanized antibodies in 4-fold serial dilutions starting from 200 nM to 0.003 nM for 30 minutes on ice. After being washed with 200 μl of FACS buffer twice, cells were incubated with secondary antibody for 30 minutes on ice. Cells were washed with 200 μl of FACS buffer twice and analyzed by FACS.
# [3] = biological target: T1, human interleukin 13 receptor subunit …; assay: FACS on A375 cells; remark: listed apart in the source
# Method: as §1, with “primary chimeric” for “primary humanized”, “in 3-fold” for “in 4-fold”, “from 300” for “from 200”, “to 0.002” for “to 0.003”
# As shown in FIG. 3 and Table 4, the chimeric antibodies bound to human IL-13RA2 at different EC50.
"internalization EC50 (pHAb dye), A375 cells [1] [nM]","internalization EC50 (pHAb dye), CHO-K1/H_IL-13RA2 cells [1] [nM]","internalization EC50 (pHAb dye), HEK-293/H IL-13RA2 cells [1] [nM]","internalization Top (MFI), A375 cells [1] [MFI]","internalization Top (MFI), CHO-K1/H_IL-13RA2 cells [1] [MFI]","internalization Top (MFI), HEK-293/H IL-13RA2 cells [1] [MFI]",EC50 [2],EC50 [3] [nM],Top (MFI) [3] [MFI],Binder
0.74,2.37,2.42,2720,19200,26000,0.33 nM and 0.41 nM,0.99,17600,"xi57F8H3F1 hIgG1 (antibody, V domains shown) VH: QVQLQQPGAELVRPGASVKLSCKASGYTFTNYWMNWIKQRPEQGLEWIGRIDPYETETHYNQKFRDRAILTVDKSSSTAFMQLSGLTSEDSAVYYCARGYGHYYGVDYWGQGTSVTVSS VL: not shown"
1.06,2.92,2.18,5260,18700,19500,0.36 nM and 0.581 nM,0.85,16900,"xi72B4H4 hIgG1 (antibody, V domains shown) VH: QVQLQQPGAERVRPGASVKLSCKASGYTFTNYWMNWVKQRPEQGLEWIGRIDPYAGETHYNQKFKDKAILTVDKSSSTAYMQLRSLTSEDSAVYYCARGYGDSYGMDHWGQGTSVTVSS VL: not shown"
0.77,1.52,1.98,4310,17900,23500,0.26 nM and 0.359 nM and 0.45 nM,0.65,18000,"xi73A11E2 hIgG1 (antibody, V domains shown) VH: EVKLVESGGGLVKPGGSLKLSCAASGFTFSSYGMSWVRQTPEKRLEWVATISGGGSYTYYPDSVKGRFTISRDNARNNLYLQMNSLRSEDTALYYCARRDLRSAMDYWGQGTSVTVSS VL: DIVMTQSQKFMSTSVGDRVSVTCKASQNVDINVAWYQQKPGQSPKALIYSASYRYSGVPDRFTGSGSGTDFTLTISNVQSEDLAEFFCQQYNSYPLTFGGGTKLEIK"
~0.441,1.02,1.49,3820,16900,24700,0.16 nM,0.47,15600,"xi61H8C1 hIgG1 (antibody, V domains shown) VH: QVQLQQSGAELARPGASVMLSCKASGYTFTSYWTQWIKQRPGQGLEGIGAIYPGDDDTSYNQKFKGKATLTADKSSSTAYMQLNSLTSEDSAVYYCARGATLLRPFPYWGQGTLVTVSA VL: DIVMTQSHKFMSTSVGDRVSITCKASQDVSTAVAWYQQKPGQSPKLLIYSASYRYTGVPDRFTGSGSGTDFTFTISSVQAEDLAVYSCQQHYSIPPTFGGGTKLEIK"
